Tests used:
[1] = molecular target: T1, recombinant human PCSK9 protein, His-tagged (Immunogen A, hPCSK9-His) (human, UniProt Q8NBP7 31-692, limits assumed, biotin-labelled in the ELISA and blocking assays (Biotin labeling kit)); assay: blocking ELISA, biotin-hPCSK9-His on coated LDLR ECD-His; antibody 1.6 nM
T1 construct: also called human PCSK9-His; recombinant hPCSK9-His; not shown: His tag

[2] = molecular target: T2, recombinant cyno monkey PCSK9 protein (cyno monkey, UniProt A8T666 31-692 (rhesus entry), limits assumed, biotin-labelled in the ELISA (Biotin labeling kit)); assay: ELISA, biotin-cyno PCSK9 on streptavidin plate; antibody 0.00067 nM
T2 construct: also called cyno PCSK9; Cyno Monkey PCSK9-His
Protocol: (§1) The next day, the plates were washed twice with wash buffer [0.01% (v/v) Tween 20], then blocked with blocking buffer [0.01% (v/v) 0.1% BSA (w/w) Tween 20] at room temperature for 2 hours. […] Unbound PCSK9 proteins were removed by washing the plate three times with wash buffer [0.01% (v/v) Tween 20]. […] The plates were washed twice with wash buffer [0.01% (v/v) Tween 20], and 200 uL HRP-conjugated secondary antibody (Sigma) was added to each well and incubated for 2 hours at 37° C. After the plates were washed three times with wash buffer, 100 ul TMB substrate were added to each well and incubated for 30 minutes at room temperature. 100 ul stop solution (0.1N HCl) were added to each well to stop the reaction.

[3] = molecular target: T1, recombinant human PCSK9 protein, …; assay: blocking ELISA, biotin-hPCSK9-His on coated LDLR ECD-His; antibody 0.01 nM
Protocol: (§2) Purified LDLR^ECD-His was diluted with PBS to a final concentration of 1.0 ug/ml, and 100 uL of diluted LDLR^ECD-His were added to each well of 96-well plate that was then sealed with plastic film and incubated at 4° C. overnight. The plate was washed twice with wash buffer [PBS+0.01% (v/v) Tween 20] and incubated with blocking buffer [PBS+0.01% (v/v) BSA+1% Tween20 (w/w)] at room temperature for 2 hours. […] The plate was washed three times with wash buffer [0.01% (v/v) Tween 20]. 100 uL HRP-conjugated streptavidin (Sigma) were then added to each well and incubated at 37° C. for 1 hour. The plate was then washed three times with wash buffer, and 100 uL TMB substrate were added to each well. After 15 minutes of incubation at room temperature, the reaction was stopped by adding 50 uL stop solution (0.1N HCl).

[4] = molecular target: T1, recombinant human PCSK9 protein, …; assay: blocking ELISA, biotin-hPCSK9-His on coated LDLR ECD-His; antibody 200 nM
Protocol: as §2

[5] = molecular target: T1, recombinant human PCSK9 protein, …; assay: ELISA, biotin-hPCSK9-His on streptavidin plate; antibody 0.00067 nM
Protocol: as §1

[6] = molecular target: T2, recombinant cyno monkey PCSK9 protein; assay: ELISA, biotin-cyno PCSK9 on streptavidin plate; antibody 0.67 nM
Protocol: as §1

[7] = molecular target: T1, recombinant human PCSK9 protein, …; assay: ELISA, biotin-hPCSK9-His on streptavidin plate; antibody 6.67 nM
Protocol: as §1

[8] = molecular target: T1, recombinant human PCSK9 protein, …; assay: blocking ELISA, biotin-hPCSK9-His on coated LDLR ECD-His; antibody 8 nM
Protocol: as §2

[9] = molecular target: T1, recombinant human PCSK9 protein, …; assay: ELISA, biotin-hPCSK9-His on streptavidin plate; antibody 66.67 nM
Protocol: as §1

[10] = molecular target: T1, recombinant human PCSK9 protein, …; assay: blocking ELISA, biotin-hPCSK9-His on coated LDLR ECD-His; antibody 0.32 nM
Protocol: as §2

[11] = molecular target: T1, recombinant human PCSK9 protein, …; assay: blocking ELISA, biotin-hPCSK9-His on coated LDLR ECD-His; antibody 40 nM
Protocol: as §2

[12] = molecular target: T1, recombinant human PCSK9 protein, …; assay: blocking ELISA, biotin-hPCSK9-His on coated LDLR ECD-His; antibody 0.06 nM
Protocol: as §2

[13] = molecular target: T2, recombinant cyno monkey PCSK9 protein; assay: ELISA, biotin-cyno PCSK9 on streptavidin plate; antibody 0.000067 nM
Protocol: as §1

[14] = molecular target: T2, recombinant cyno monkey PCSK9 protein; assay: ELISA, biotin-cyno PCSK9 on streptavidin plate; antibody 6.67 nM
Protocol: as §1

[15] = molecular target: T2, recombinant cyno monkey PCSK9 protein; assay: ELISA, biotin-cyno PCSK9 on streptavidin plate; antibody 0.0067 nM
Protocol: as §1

[16] = molecular target: T1, recombinant human PCSK9 protein, …; assay: ELISA, biotin-hPCSK9-His on streptavidin plate; antibody 0 nM (blank)
Protocol: as §1

[17] = molecular target: T1, recombinant human PCSK9 protein, …; assay: ELISA, biotin-hPCSK9-His on streptavidin plate; antibody 0.67 nM
Protocol: as §1

[18] = molecular target: T2, recombinant cyno monkey PCSK9 protein; assay: ELISA, biotin-cyno PCSK9 on streptavidin plate; antibody 0.067 nM
Protocol: as §1

[19] = molecular target: T2, recombinant cyno monkey PCSK9 protein; assay: ELISA, biotin-cyno PCSK9 on streptavidin plate; antibody 66.67 nM
Protocol: as §1

[20] = molecular target: T1, recombinant human PCSK9 protein, …; assay: ELISA, biotin-hPCSK9-His on streptavidin plate; antibody 0.000067 nM
Protocol: as §1

[21] = molecular target: T2, recombinant cyno monkey PCSK9 protein; assay: ELISA, biotin-cyno PCSK9 on streptavidin plate; antibody 0 nM (blank)
Protocol: as §1

[22] = molecular target: T1, recombinant human PCSK9 protein, …; assay: ELISA, biotin-hPCSK9-His on streptavidin plate; antibody 0.0067 nM
Protocol: as §1

[23] = molecular target: T1, recombinant human PCSK9 protein, …; assay: ELISA, biotin-hPCSK9-His on streptavidin plate; antibody 0.067 nM
Protocol: as §1

T2 sequence (A8T666 31-692 limits assumed): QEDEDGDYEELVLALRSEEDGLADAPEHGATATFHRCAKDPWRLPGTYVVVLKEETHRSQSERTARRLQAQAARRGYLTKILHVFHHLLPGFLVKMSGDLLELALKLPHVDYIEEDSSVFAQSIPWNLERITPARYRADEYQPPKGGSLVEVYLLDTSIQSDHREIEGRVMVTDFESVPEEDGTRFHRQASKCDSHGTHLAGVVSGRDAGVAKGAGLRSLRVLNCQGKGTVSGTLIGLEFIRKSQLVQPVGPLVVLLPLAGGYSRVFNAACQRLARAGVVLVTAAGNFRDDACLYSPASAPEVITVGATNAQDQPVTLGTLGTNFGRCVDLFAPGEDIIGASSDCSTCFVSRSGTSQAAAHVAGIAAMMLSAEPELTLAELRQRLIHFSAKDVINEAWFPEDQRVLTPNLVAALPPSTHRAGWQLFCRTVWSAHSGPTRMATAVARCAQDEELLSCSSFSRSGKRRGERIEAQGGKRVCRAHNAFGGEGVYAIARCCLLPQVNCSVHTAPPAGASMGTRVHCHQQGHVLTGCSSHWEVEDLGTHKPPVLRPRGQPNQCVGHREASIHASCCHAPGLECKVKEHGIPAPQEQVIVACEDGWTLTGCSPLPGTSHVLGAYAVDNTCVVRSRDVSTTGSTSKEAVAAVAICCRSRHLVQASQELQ

Row | Binder | OD450 nm (PCSK9 bound to LDLR) [1] | OD450 nm [2] | OD450 nm (PCSK9 bound to LDLR) [3] | OD450 nm (PCSK9 bound to LDLR) [4] | OD450 nm [5] | OD450 nm [6] | OD450 nm [7] | OD450 nm (PCSK9 bound to LDLR) [8] | OD450 nm [9] | OD450 nm (PCSK9 bound to LDLR) [10] | OD450 nm (PCSK9 bound to LDLR) [11] | OD450 nm (PCSK9 bound to LDLR) [12] | OD450 nm [13] | OD450 nm [14] | OD450 nm [15] | OD450 nm [16] | OD450 nm [17] | OD450 nm [18] | OD450 nm [19] | OD450 nm [20] | other results
1 | 74C10A8, chimeric anti-PCSK9 mAb purified from hybridoma (antibody, V domains shown, From Harbour H2L2 mice: human variable regions, rat constant regions) VH: QVQLQESGPGLVKPSETLSLTCSVSGGSINTYYWSWIRQPPGKGLEWIGYIYYSGSTNYNPSLKSRVTISVDTSKNQFSLKLTSVTAADTAVYYCARERFTMVRGVMMDYYYYGMDVWGQGTTVTVSS VL: DIQLTQSPSFLSASVGDRVTITCRASQGISSYLAWYQQKPGKAPKLLIYAASTLQSGVPSRFSGSGSGTEFTLTISSLQPEDFATYYCQQLNSYPRTFGQGTKVEIK | 0.97 OD450 nm | 0.34 OD450 nm | 1.34 OD450 nm | 0.55 OD450 nm | 0.17 OD450 nm | 2.53 OD450 nm | 2.99 OD450 nm | 0.78 OD450 nm | 2.98 OD450 nm | 1.2 OD450 nm | 0.68 OD450 nm | 1.3 OD450 nm | 0.18 OD450 nm | 2.86 OD450 nm | 0.27 OD450 nm | 0.22 OD450 nm | 2.89 OD450 nm | 0.76 OD450 nm | 2.89 OD450 nm | 0.19 OD450 nm | OD450 nm [21]: 0.21 OD450 nm; OD450 nm [22]: 0.3 OD450 nm
2 | 76A1B11, chimeric anti-PCSK9 mAb purified from hybridoma (antibody, V domains shown, From Harbour H2L2 mice: human variable regions, rat constant regions) VH: QVQLVESGGGVVQPGRSLRLSCAATGFTFSIYGMHWVRQAPGKGLEWVAVIWYDGSNKYYADSVKGRFIISRDNSKNTLYLQMNSLRVEDTAVYYCVSDYFGSGNSYYYYGMDVWGQGTTVTVSS VL: DIQMTQSPSSLSASVGDRVTITCRASQVISNYLAWYQQKPGKVPKLLIYTASTLQSGVPSRFSGSGSGADFTLTISSLQPEDVATYYCQKYNSAPYTFGQGTKLEIK | 0.96 OD450 nm | 0.23 OD450 nm | 1.29 OD450 nm | 0.55 OD450 nm | 0.21 OD450 nm | 2.5 OD450 nm | 2.85 OD450 nm | 0.7 OD450 nm | 2.85 OD450 nm | 1.19 OD450 nm | 0.59 OD450 nm | 1.18 OD450 nm | 0.21 OD450 nm | 2.82 OD450 nm | 0.26 OD450 nm | 0.18 OD450 nm | 2.66 OD450 nm | 0.81 OD450 nm | 2.88 OD450 nm | 0.2 OD450 nm | OD450 nm [23]: 0.86 OD450 nm; OD450 nm [21]: 0.19 OD450 nm; OD450 nm [22]: 0.27 OD450 nm
3 | 139G1C5, chimeric anti-PCSK9 mAb purified from hybridoma (antibody, V domains shown, From Harbour H2L2 mice: human variable regions, rat constant regions) VH: QVQLQESGPGLVKPSGTLSLTCAVSGGSISRNNWWSWVRQPPGKGLEWIGEIYHSGSTNYNPSLKSRVTISVDKSKNQFSLKLSSVTAADTAVYYCARDLLGIGLDYWGQGTLVTVSS VL: EFVLTQSPATLSLSPGERAILSCRASQSFSSYIAWYQQKPGQAPRLLIYDASNRATGIPARFSGSGSGTDFTLTISSLEPEDFAVYYCQQHSNWMYTFGQGTKLEIK | 0.89 OD450 nm | 0.26 OD450 nm | 1.06 OD450 nm | 0.63 OD450 nm | 0.21 OD450 nm | 2.67 OD450 nm | 2.94 OD450 nm | 0.61 OD450 nm | 2.93 OD450 nm | 1.11 OD450 nm | 0.67 OD450 nm | 1.13 OD450 nm | 0.23 OD450 nm | 2.88 OD450 nm | 0.27 OD450 nm | 0.22 OD450 nm | 2.87 OD450 nm | 1 OD450 nm | 2.9 OD450 nm | 0.19 OD450 nm | OD450 nm [23]: 1.55 OD450 nm; OD450 nm [21]: 0.2 OD450 nm; OD450 nm [22]: 0.36 OD450 nm
4 | 152G2F7, chimeric anti-PCSK9 mAb purified from hybridoma (antibody, V domains shown, From Harbour H2L2 mice: human variable regions, rat constant regions) VH: EVQLVESGGGLVQPGGSLRLSCAASEFTFGGYWMTWVRQAPGKGLEWVANIKQDGSEKYYVDSVKGRFTISRDNAKNSLYLHMNSLRAEDTAVYYCARDRTTMIRGVSLYYYYYGMDVWGQGTAVTVSS VL: EIVLTQSPATLSLSPGERATLSCRASQSVSSYLAWYQQKPGQAPRLLIYDASNRATGIPARFSGSGSGTDFTLTISSLEPEDFAVYYCQQRSNWPLTFGGGTKVEIK | 1.2 OD450 nm | 0.21 OD450 nm | 1.26 OD450 nm | 0.7 OD450 nm | 0.21 OD450 nm | 1.25 OD450 nm | 2.91 OD450 nm | 0.94 OD450 nm | 2.91 OD450 nm | 1.17 OD450 nm | 0.74 OD450 nm | 1.2 OD450 nm | 0.27 OD450 nm | 2.67 OD450 nm | 0.2 OD450 nm | 0.17 OD450 nm | 2.42 OD450 nm | 0.35 OD450 nm | 2.93 OD450 nm | 0.18 OD450 nm | OD450 nm [23]: 0.6 OD450 nm; OD450 nm [21]: 0.33 OD450 nm; OD450 nm [22]: 0.25 OD450 nm

From patent US20180355059A1 (PHARMAEXPLORER, published 2018)
